B1: HflK (natural protein, E. coli)
chain: MAWNQPGNNGQDRDPWGSSKPGGNSEGNGNKGGRDQGPPDLDDIFRKLSKKLGGLGGGKGTGSGGGSSSQGPRPQLGGRVVTIAAAAIVIIWAASGFYTIKEAERGVVTRFGKFSHLVEPGLNWKPTFIDEVKPVNVEAVRELAASGVMLTSDENVVRVEMNVQYRVTNPEKYLYSVTSPDDSLRQATDSALRGVIGKYTMDRILTEGRTVIRSDTQRELEETIRPYDMGITLLDVNFQAARPPEEVKAAFDDAIAARENEQQYIREAEAYTNEVQPRANGQAQRILEEARAYKAQTILEAQGEVARFAKLLPEYKAAPEITRERLYIETMEKVLGNTRKVLVNDKGGNLMVLPLDQMLKGGNAPAAKSDNGASNLLRLPPASSSTTSGASNTSSTSQGDIMDQRRANAQRNDYQRQGE
B2: HflC (natural protein, E. coli)
chain: MRKSVIAIIIIVLVVLYMSVFVVKEGERGITLRFGKVLRDDDNKPLVYEPGLHFKIPFIETVKMLDARIQTMDNQADRFVTKEKKDLIVDSYIKWRISDFSRYYLATGGGDISQAEVLLKRKFSDRLRSEIGRLDVKDIVTDSRGRLTLEVRDALNSGSAGTEDEVTTPAADNAIAEAAERVTAETKGKVPVINPNSMAALGIEVVDVRIKQINLPTEVSEAIYNRMRAEREAVARRHRSQGQEEAEKLRATADYEVTRTLAEAERQGRIMRGEGDAEAAKLFADAFSKDPDFYAFIRSLRAYENSFSGNQDVMVMSPDSDFFRYMKTPTSATR

Biological target: FtsH (E. coli, UniProt P0AAI3 1-644)
Assay: cross-linking

Chain of FtsH (P0AAI3 whole entry): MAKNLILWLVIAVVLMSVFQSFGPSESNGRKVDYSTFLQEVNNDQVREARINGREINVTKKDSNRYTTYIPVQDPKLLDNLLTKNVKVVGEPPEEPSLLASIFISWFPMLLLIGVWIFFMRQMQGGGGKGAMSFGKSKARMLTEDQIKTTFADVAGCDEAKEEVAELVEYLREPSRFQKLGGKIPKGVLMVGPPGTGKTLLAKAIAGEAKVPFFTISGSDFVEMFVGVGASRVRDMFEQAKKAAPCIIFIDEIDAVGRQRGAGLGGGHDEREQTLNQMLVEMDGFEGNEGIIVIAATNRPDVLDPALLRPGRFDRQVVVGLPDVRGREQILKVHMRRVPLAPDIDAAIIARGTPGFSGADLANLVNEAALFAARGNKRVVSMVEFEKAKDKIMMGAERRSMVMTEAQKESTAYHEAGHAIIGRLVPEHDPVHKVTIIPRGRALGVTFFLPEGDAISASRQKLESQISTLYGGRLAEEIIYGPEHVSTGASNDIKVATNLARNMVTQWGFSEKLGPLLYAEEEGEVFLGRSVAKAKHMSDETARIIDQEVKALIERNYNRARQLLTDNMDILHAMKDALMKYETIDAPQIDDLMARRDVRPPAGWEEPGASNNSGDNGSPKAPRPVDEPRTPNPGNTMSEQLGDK

Binder | binding result
B1 | binds
B2 | binds
